The target in this test is GST-HktR (Pseudomonas syringae pv. actinidiae M228). Put plainly: MST.

For RpoD-His6 (natural protein), the Kd was 1.79 µM.

For the origin of these results see paper doi:10.1101/2024.11.20.624486.
